{
  "source": "paper PMC11551741",
  "about": "(Nucleic Acids Research, 2024)",
  "molecules": {"B1": {"name": "50 bp DNA, 6-FAM (dsDNA)", "DNA 1": "TAAATGCCAATGCTGCTGATACGTACTCGGACTGATTCGGAACTGTAACG", "DNA 2": "CGTTACAGTTCCGAATCAGTCCGAGTACGTATCAGCAGCATTGGCATTTA"}, "B2": {"name": "50 bp DNA, unlabelled (dsDNA)", "DNA 1": "B1 DNA 1", "DNA 2": "B1 DNA 2"}, "B3": {"name": "RAD18(442p,444p)^peptide (S(pS)S(pS)DI) (peptide)", "peptide": "Ac-S[pS]S[pS]DI-NH2", "SMILES": "CC[C@H](C)[C@H](NC(=O)[C@H](CC(=O)O)NC(=O)[C@H](COP(=O)(O)O)NC(=O)[C@H](CO)NC(=O)[C@H](COP(=O)(O)O)NC(=O)[C@H](CO)NC(C)=O)C(N)=O", "notes": "RAD18, human, residues S441 to I446; also called double phosphorylated RAD18 peptide; double-phosphorylated hexapeptide; source: synthetic peptide (Biomatik)"}},
  "key": {"[1]": {"target": "RAD18 peptide 437-452 (Homo sapiens) (UniProt Q9NS91)", "test": "ITC", "settings": "cited from earlier work"}, "[2]": {"target": "unmodified nucleosome core particle (H2A, H2B, H3.1, H4 and 147 bp Widom 601 DNA) (human) (UniProt P0C0S8)", "test": "native gel or EMSA; 10 nM nucleosome core particles with rising SLF1^ARD or SLF1^ARD_4A, room temperature, 20 mins; Diamond DNA stain"}, "SLF1 tBRCT, 6-208": {"target": "SLF1 tBRCT, 6-208 (UniProt Q9BQI6)", "sequence (Q9BQI6 whole entry, looked up, tested part not stated)": "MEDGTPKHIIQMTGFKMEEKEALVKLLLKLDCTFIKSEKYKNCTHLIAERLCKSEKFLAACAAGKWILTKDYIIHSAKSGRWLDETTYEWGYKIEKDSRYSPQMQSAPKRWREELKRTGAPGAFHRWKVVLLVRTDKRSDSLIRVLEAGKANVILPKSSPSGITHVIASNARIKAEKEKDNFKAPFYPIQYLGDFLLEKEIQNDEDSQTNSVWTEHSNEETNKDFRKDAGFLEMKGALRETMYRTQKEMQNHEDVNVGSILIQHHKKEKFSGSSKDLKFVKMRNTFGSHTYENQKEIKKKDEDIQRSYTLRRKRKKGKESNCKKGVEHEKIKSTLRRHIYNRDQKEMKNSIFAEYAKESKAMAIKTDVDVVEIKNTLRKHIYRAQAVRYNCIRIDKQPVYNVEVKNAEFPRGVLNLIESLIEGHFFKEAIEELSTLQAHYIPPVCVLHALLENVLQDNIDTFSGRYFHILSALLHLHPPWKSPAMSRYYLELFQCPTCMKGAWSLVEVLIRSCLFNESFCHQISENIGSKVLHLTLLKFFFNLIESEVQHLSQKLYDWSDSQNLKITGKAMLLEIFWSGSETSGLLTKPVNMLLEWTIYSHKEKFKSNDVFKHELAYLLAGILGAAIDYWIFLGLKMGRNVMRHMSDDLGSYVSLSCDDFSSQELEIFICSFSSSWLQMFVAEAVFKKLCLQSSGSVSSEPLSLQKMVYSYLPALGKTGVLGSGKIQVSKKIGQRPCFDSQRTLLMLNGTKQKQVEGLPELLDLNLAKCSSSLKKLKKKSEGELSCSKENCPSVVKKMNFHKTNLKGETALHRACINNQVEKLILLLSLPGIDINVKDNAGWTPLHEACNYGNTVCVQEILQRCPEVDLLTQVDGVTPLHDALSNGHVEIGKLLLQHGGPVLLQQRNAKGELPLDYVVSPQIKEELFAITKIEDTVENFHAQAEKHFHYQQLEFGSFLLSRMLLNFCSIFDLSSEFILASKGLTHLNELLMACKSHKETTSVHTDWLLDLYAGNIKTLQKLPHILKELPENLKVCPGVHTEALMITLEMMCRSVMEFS", "test": "thermal melt (SYPRO Orange) of SLF1tBRCT"}, "SLF1 ARD": {"target": "T1, SLF1 ARD (Homo sapiens, UniProt Q9BQI6 802-934)", "T1 sequence": "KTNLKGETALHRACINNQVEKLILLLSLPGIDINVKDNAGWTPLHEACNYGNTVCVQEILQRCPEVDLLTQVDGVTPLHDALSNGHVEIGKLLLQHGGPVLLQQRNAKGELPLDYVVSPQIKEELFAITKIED", "test": "EMSA; no shift; DNA EMSA: 40 mM Tris pH 7.5, 100 mM KCl, 0.2 mM DTT, 10% glycerol, 20 ug/ml BSA, 10 nM DNA, 4 C 30 min; NCP EMSA: 10 nM NCP, room temperature 20 min; FP: 20 mM", "settings": "protein: recombinant; tags: none (His-tag cleaved by TEV); label: 5' 6-FAM on strand 1; blunt"}, "SLF1 tBRCT [3]": {"target": "T2, SLF1 tBRCT (Homo sapiens, UniProt Q9BQI6 6-208)", "T2 sequence": "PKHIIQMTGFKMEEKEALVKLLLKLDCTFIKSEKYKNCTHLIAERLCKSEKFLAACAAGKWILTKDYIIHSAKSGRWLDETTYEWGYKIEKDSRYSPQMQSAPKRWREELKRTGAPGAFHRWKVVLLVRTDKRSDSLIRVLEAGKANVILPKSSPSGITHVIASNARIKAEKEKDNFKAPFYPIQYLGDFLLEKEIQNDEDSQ", "test": "fluorescence polarization; 20 mM Tris pH 8.0, 150 mM NaCl, 5% glycerol, room temperature; DNA EMSA: 40 mM Tris pH 7.5, 100 mM KCl, 0.2 mM DTT, 10% glycerol, 20 ug/ml BSA, 10 nM DNA, 4 C 30 min; NCP EMSA: 10 nM NCP, room temperature 20 min; FP: 20 mM", "settings": "protein: recombinant; tags: none (His-tag cleaved by TEV); label: 5' 6-FAM on strand 1; blunt"}, "BRCA1 tBRCT": {"target": "BRCA1 tBRCT (UniProt P38398 1646-1859)", "sequence (P38398 1646-1859)": "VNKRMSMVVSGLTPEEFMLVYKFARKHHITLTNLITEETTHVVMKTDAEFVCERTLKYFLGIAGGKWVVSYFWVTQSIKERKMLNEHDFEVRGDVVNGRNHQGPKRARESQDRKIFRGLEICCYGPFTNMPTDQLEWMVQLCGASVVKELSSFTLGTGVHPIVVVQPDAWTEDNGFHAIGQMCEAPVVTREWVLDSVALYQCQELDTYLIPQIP", "test": "EMSA; no interaction observed; DNA EMSA: 40 mM Tris pH 7.5, 100 mM KCl, 0.2 mM DTT, 10% glycerol, 20 ug/ml BSA, 10 nM DNA, 4 C 30 min; NCP EMSA: 10 nM NCP, room temperature 20 min; FP: 20 mM", "settings": "protein: recombinant; tags: N-terminal non-cleavable His-tag; label: 5' 6-FAM on strand 1; blunt"}, "SLF1 tBRCT [4]": {"target": "T2, SLF1 tBRCT", "test": "thermal melt; 30 uM DNA, 10 uM protein; DNA EMSA: 40 mM Tris pH 7.5, 100 mM KCl, 0.2 mM DTT, 10% glycerol, 20 ug/ml BSA, 10 nM DNA, 4 C 30 min; NCP EMSA: 10 nM NCP, room temperature 20 min; FP: 20 mM", "settings": "protein: recombinant; tags: none (His-tag cleaved by TEV); blunt"}, "SLF1 tBRCT K56A": {"target": "T3, SLF1 tBRCT K56A (Homo sapiens, UniProt Q9BQI6 6-208, K56A)", "T3 sequence": "T2 sequence with K51A", "test": "thermal melt; 30 uM DNA, 10 uM protein; DNA EMSA: 40 mM Tris pH 7.5, 100 mM KCl, 0.2 mM DTT, 10% glycerol, 20 ug/ml BSA, 10 nM DNA, 4 C 30 min; NCP EMSA: 10 nM NCP, room temperature 20 min; FP: 20 mM", "settings": "protein: recombinant; tags: none (His-tag cleaved by TEV); blunt"}, "SLF1 tBRCT T13A": {"target": "T4, SLF1 tBRCT T13A (Homo sapiens, UniProt Q9BQI6 6-208, T13A)", "T4 sequence": "T2 sequence with T8A", "test": "thermal melt; 30 uM DNA, 10 uM protein; DNA EMSA: 40 mM Tris pH 7.5, 100 mM KCl, 0.2 mM DTT, 10% glycerol, 20 ug/ml BSA, 10 nM DNA, 4 C 30 min; NCP EMSA: 10 nM NCP, room temperature 20 min; FP: 20 mM", "settings": "protein: recombinant; tags: none (His-tag cleaved by TEV); blunt"}, "[5]": {"target": "T5, SLF1^tBRCT (tandem BRCT domain of SLF1, residues 6-208) (human, UniProt Q9BQI6 6-208)", "T5 construct": "SLF1 (SMC5-SMC6 complex localization factor 1), human, tandem BRCT domain, residues 6-208; pHAT4 construct; also called wild-type SLF1^tBRCT; not shown: His-tag, N-terminal, cleaved", "T5 sequence (looked up)": "T2 sequence", "test": "thermal melt (SYPRO Orange); 10 μM SLF1^tBRCT proteins with 200 μM RAD18 peptides; 25-95°C; Tm of SLF1^tBRCT", "settings": "both partners purified"}},
  "note": "Numbering of substitutions follows the chain as printed. Non-standard residues stand in square brackets, D forms with d. pS = N[C@@H](COP(=O)(O)O)C(=O)O",
  "data": [
    {"molecule": "SLF1 tBRCT (from UniProt Q9BQI6)", "values": [
      {"measurement": "Kd", "setting": "[1]", "result": 12, "unit": "nM"}
    ]},
    {"molecule": "SLF1^ARD (ankyrin repeat domain of SLF1, residues 802-934), His-tag cleaved (from UniProt Q9BQI6 802-934) (domain or fragment)", "values": [
      {"measurement": "affinity", "setting": "[2]", "result": "1 to 5", "unit": "µM"}
    ]},
    {"molecule": "RAD18 441-446 (from UniProt Q9NS91) pS442/pS444 peptide", "values": [
      {"measurement": "other: ΔTm vs SLF1tBRCT alone", "setting": "SLF1 tBRCT, 6-208; reference: pS442 peptide, sites S444", "result": "stronger; reference 0.8"},
      {"measurement": "other: ΔTm vs SLF1tBRCT alone", "setting": "SLF1 tBRCT, 6-208; reference: pS444 peptide, sites S442", "result": "stronger; reference 0.4"},
      {"measurement": "other: ΔTm vs SLF1tBRCT alone", "setting": "SLF1 tBRCT, 6-208; reference: unphosphorylated peptide SSSSDI, sites S442,S444", "result": 3.7, "unit": "°C"}
    ]},
    {"molecule": "B1", "values": [
      {"measurement": "binding result", "setting": "SLF1 ARD", "result": "no binding"},
      {"measurement": "Kd", "setting": "SLF1 tBRCT [3]", "result": 430, "unit": "nM"},
      {"measurement": "binding result", "setting": "BRCA1 tBRCT", "result": "no binding"}
    ]},
    {"molecule": "B2", "values": [
      {"measurement": "binding signal", "setting": "SLF1 tBRCT [4]", "result": "7.1 C (delta Tm)"},
      {"measurement": "binding signal", "setting": "SLF1 tBRCT K56A", "result": "6.4 C (delta Tm)"},
      {"measurement": "binding signal", "setting": "SLF1 tBRCT T13A", "result": "6.9 C (delta Tm)"}
    ]},
    {"molecule": "B3", "values": [
      {"measurement": "ΔTm", "setting": "[5]", "result": 3.7, "unit": "°C"}
    ]}
  ]
}
